The source of these data is PMC9843812, “The ybcF Gene of Escherichia coli Encodes a Local Orphan Enzyme, Catabolic Carbamate Kinase” (Journal of Microbiology and Biotechnology, 2022).

Substrate in series [1]: NC(=O)OP(=O)(O)O
In words: ATP formation measured by firefly luciferase luminescence, Michaelis-Menten / Lineweaver-Burk. The settings on record: 2 mM ADP fixed, CP 0-3 mM, 30 mM MgCl2, 20 mM Tris-Cl pH 8, 28 °C, 60 min, 100 nM enzyme. It counts as biochemical, Escherichia coli.

Substrate in series [2]: Nc1ncnc2c1ncn2[C@@H]1O[C@H](COP(=O)(O)OP(=O)(O)O)[C@@H](O)[C@H]1O
Described as above. It is filed as biochemical, Escherichia coli. The settings on record: 2 mM CP fixed, ADP 0-3 mM, 30 mM MgCl2, 20 mM Tris-Cl pH 8, 28 °C, 60 min, 100 nM enzyme.

B1: YbcF (catabolic carbamate kinase, CK; proposed AllK) (Escherichia coli K-12) (protein)
chain: MKTLVVALGGNALLQRGEALTAENQYRNIASAVPALARLARSYRLAIVHGNGPQVGLLALQNLAWKEVEPYPLDVLVAESQGMIGYMLAQSLSAQPQMPPVTTVLTRIEVSPDDPAFLQPEKFIGPVYQPEEQEALEAAYGWQMKRDGKYLRRVVASPQPRKILDSEAIELLLKEGHVVICSGGGGVPVTDDGAGSEAVIDKDLAAALLAEQINADGLVILTDADAVYENWGTPQQRAIRHATPDELAPFAKADGSMGPNVTAVSGYVRSRGKPAWIGALSRIEETLAGEAGTCISL
For the protein B1, the values for the Km in series [1] and in series [2] were 0.47 mM and 0.43 mM, respectively.
